Results reported in patent US20260151494A1 (ARO BIOTHERAPEUTICS, published 2026).

How the values were obtained:
[1] = target: T1, human CD71 extracellular domain (CD71-ECD) (human, UniProt P02786 89-760); experiment: primary ELISA; also: test concentration or dose not given here
T1 construct: also called hCD71; human CD71-ECD

[2] = target: T1, human CD71 extracellular domain …; experiment: primary ELISA, RLU ratio to HSA
[3] = target: T2, human CD71 extracellular domain (human, UniProt P02786 89-760); experiment: primary ELISA; also: test concentration or dose not given here
T2 construct: also called hCD71; human CD71-ECD

[4] = target: T3, apical domain of cynomolgus CD71 (cynomolgus, UniProt A0A2K5X958 189-383); experiment: primary ELISA; also: test concentration or dose not given here
T3 construct: domain: apical domain; also called Cyno apical domain

[5] = target: T2, human CD71 extracellular domain; experiment: primary ELISA, signal ratio to HSA
[6] = target: T3, apical domain of cynomolgus CD71; experiment: primary ELISA, signal ratio to HSA

T1 sequence (P02786 89-760): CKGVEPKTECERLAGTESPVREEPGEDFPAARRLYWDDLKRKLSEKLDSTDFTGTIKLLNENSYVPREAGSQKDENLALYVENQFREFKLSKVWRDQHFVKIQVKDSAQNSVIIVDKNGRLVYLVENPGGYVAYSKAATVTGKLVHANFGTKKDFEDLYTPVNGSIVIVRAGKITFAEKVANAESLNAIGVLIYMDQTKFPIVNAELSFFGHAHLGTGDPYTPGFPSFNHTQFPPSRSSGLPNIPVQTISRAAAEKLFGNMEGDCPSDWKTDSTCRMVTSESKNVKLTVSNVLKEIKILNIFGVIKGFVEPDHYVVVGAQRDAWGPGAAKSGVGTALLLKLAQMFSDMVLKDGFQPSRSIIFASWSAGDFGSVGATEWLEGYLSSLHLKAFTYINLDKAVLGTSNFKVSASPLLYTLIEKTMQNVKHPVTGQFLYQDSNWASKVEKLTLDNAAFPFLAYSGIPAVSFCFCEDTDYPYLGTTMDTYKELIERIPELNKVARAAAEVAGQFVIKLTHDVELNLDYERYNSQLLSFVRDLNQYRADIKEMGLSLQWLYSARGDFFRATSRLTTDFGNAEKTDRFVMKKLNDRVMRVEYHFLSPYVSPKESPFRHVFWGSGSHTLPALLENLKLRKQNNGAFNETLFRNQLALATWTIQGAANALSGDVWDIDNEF
T2 sequence (P02786 89-760): as above
T3 sequence (A0A2K5X958 entry or part of it): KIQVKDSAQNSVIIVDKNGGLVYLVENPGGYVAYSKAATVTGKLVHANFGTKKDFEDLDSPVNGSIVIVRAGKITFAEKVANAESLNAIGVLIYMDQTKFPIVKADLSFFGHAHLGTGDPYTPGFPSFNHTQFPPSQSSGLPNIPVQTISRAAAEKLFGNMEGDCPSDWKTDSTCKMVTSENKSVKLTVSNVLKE

Row | Binder | RLU [1] [RLU] | hCD71:HSA [2] | RLU [3] [RLU] | RLU [4] [RLU] | hCD71:HSA [5] | Cyno apical domain:HSA [6]
1 | CD71-binding FN3 domain SEQ ID NO: 250 (designed binder) MSLPAPKNLVVSRVTEDSARLSWTAPDAAFDSFEIGYFENLYLGEAIVLTVPGSERSYDLTGLKPGTEYWVQIGGVNGGNWSAPLSAIFTT | 3.41e+06 | 140 | – | – | – | –
2 | CD71-binding FN3 domain SEQ ID NO: 257 (designed binder) MSLPAPKNLVVSHVTEDSARLSWTAPDAAFDSFEIGYWENAYKGEAIVLTVPGSERSYDLTGLKPGTEYVVFIGGVKGGVWSVPLSAIFTT | 2.83e+06 | 378 | – | – | – | –
3 | CD71-binding FN3 domain SEQ ID NO: 271 (designed binder) MSLPAPKNLVVSRITEDSARLSWTAPDAAFDSFEIGYWENAYKGEAIVLTVPGSERSYDLTGLKPGTEYVVFIGGVKGGVWSVPLSAIFTT | 2.57e+06 | 180 | – | – | – | –
4 | CD71-binding FN3 domain SEQ ID NO: 272 (designed binder) MSLPAPKNLVVSRVTEDSARLSWTAPDAAFDSFEIAYGEAAYDGEAIALLVPGSERSYDLTGLKPGTEYWVQIGGVKGGNWSAPLSAIFTT | 2.83e+06 | 289 | – | – | – | –
5 | CD71-binding FN3 domain SEQ ID NO: 239 (designed binder) MSLPAPKNLVVSRVTEDSARLSWTAPDAAFDSFEIVYQENSAYGEAIVLTVPGSERSYDLTGLKPGTEYWVQIGGVKGGNWSAPLSAIFTT | 1.88e+06 | 154 | – | – | – | –
6 | CD71-binding FN3 domain SEQ ID NO: 244 (designed binder) MSLPAPKNLVVSRVTEDSARLSWTAPDAAFDSFEIGYFENLYLGEAIVLTVPGSERSYDLTGLKPGTEYVVFIGGVKGGEYSIPLSAIFTT | 3.25e+06 | 392 | – | – | – | –
7 | CD71-binding FN3 domain SEQ ID NO: 248 (designed binder) MSLPAPKNLVVSRVTEDSARLSWTAPDAAFDSFEIGYFENLYLGEAIVLTVPGSERSYDLTGLKPGTEYVVFIGGVKGGDFSPPLSAIFTT | 3.49e+06 | 375 | – | – | – | –
8 | CD71-binding FN3 domain SEQ ID NO: 237 (designed binder) MSLPAPKNLVVSRVTEDSARLSWTAPDAAFDSFEIAYFERTWFGEAIVLTVPGSERSYDLTGLKPGTEYWVQIGGVKGGDWSKPLSAIFTT | 3.98e+06 | 535 | – | – | – | –
9 | CD71-binding FN3 domain SEQ ID NO: 255 (designed binder) MSLPAPKNLVVSRVTEDSARLSWTTPDAAFDSFEIAYFEIAWLGEAIVLTVPGSERSYDLTGLKPGTEYWVQIGGVKGGAYSTPLSAIFTT | 3.73e+06 | 90 | – | – | – | –
10 | CD71-binding FN3 domain SEQ ID NO: 263 (designed binder) MSLPAPKNLVVSRVTEDSARLSWTAPDAAFDSFEIGYFENLYLGEAIVLTVPGSERSYDLTGLKPGTEYWVQIGGVKGGNWSSPLSAIFTT | 3.32e+06 | 208 | – | – | – | –
11 | CD71-binding FN3 domain SEQ ID NO: 274 (designed binder) MSLPAPKNLVVSRVTEDSARLSWTAPDAAFDSFEIVYWEQVGVGEAIVLTVPGSERSYDLTGLKPGTEYWVQIGGVKGGGFSEPLSAIFTT | 2.37e+06 | 296 | – | – | – | –
12 | CD71-binding FN3 domain SEQ ID NO: 238 (designed binder) MSLPAPKNLVVSRVTEDSARLSWTAPDAAFDSFEIGYFENDYFGEAIVLTVPGSERSYDLTGLKPGTEYVVFIGGVKGGKWSAPLSAIFTT | 3.86e+06 | 576 | – | – | – | –
13 | CD71-binding FN3 domain SEQ ID NO: 251 (designed binder) MSLPAPKNLVVSRVTEDSARLSWTAPDAAFDSFEIGYFENLYLGEAIVLTVPGSERSYDLTGLKPGTEYWVQIGGVKGGNWSAPLVATFTT | 4.09e+06 | 724 | – | – | – | –
14 | CD71-binding FN3 domain of SEQ ID NO: 218 (designed binder) MSLPAPKNLVVSRVTEDSARLSWTAPDAAFDSFEIAYHEDDFYGEAIALLVPGSERSYDLTGLKPGTEYIVHIGGVKGGFFSSPLYAWFTT | – | – | 2.42e+06 | 4.72e+06 | 77 | 149
15 | CD71-binding FN3 domain of SEQ ID NO: 168 (designed binder) MSLPAPKNLVVSRVTEDSARLSWTAPDAAFDSFIIGYLEPQPPDEAIALYVPGSERSYDLTGLKPGTEYNVTIQGVKGGFPSLPLVATFTT | – | – | 3.94e+06 | 4.84e+06 | 32 | 39
16 | CD71-binding FN3 domain of SEQ ID NO: 197 (designed binder) MSLPAPKNLVVSRVTEDSARLSWTAPDAAFDSFFIGYLEPQPPGEAISLLVPGSERSYDLTGLKPGTEYNVTIQGVKGGFPSEPLHAIFTT | – | – | 3.4e+06 | 6.23e+06 | 36 | 66
17 | CD71-binding FN3 domain of SEQ ID NO: 179 (designed binder) MSLPAPKNLVVSRVTEDSARLSWTAPDAAFDSFFIGYLEPQPPGEAITLLVPGSERSYDLTGLKPGTEYNVTIQGVKGGFPSHPLVATTTT | – | – | 4.11e+06 | 4.71e+06 | 39 | 45
18 | CD71-binding FN3 domain of SEQ ID NO: 198 (designed binder) MSLPAPKNLVVSRVTEDSARLSWTAPDAAFDSFLIGYTEYSVYGEAIVLTVPGSERSYDLTGLKPGTEYTVWIMGVKGGIKSTPLSAISTT | – | – | 3.62e+06 | 4.95e+06 | 84 | 116
19 | CD71-binding FN3 domain of SEQ ID NO: 204 (designed binder) MSLPAPKNLVVSRVTEDSARLSWTAPDAAFDSFLIQYDEWPTYGEAIVLTVPGSERSYDLTGLKPGTEYLVEIVGVKGGNLSGPLSAIFTT | – | – | 4.09e+06 | 5.46e+06 | 243 | 325

The next lines start with the values.

Row | RLU [1] [RLU] | hCD71:HSA [2] | RLU [3] [RLU] | RLU [4] [RLU] | hCD71:HSA [5] | Cyno apical domain:HSA [6] | Binder
20 | 3.8e+06 | 376 | – | – | – | – | CD71-binding FN3 domain SEQ ID NO: 235 (designed binder) MSLPAPKNLVVSRVTEDSARLSWTAPDAAFDSFEIVYAEPVRFGEAIVLTVPGSERSYDLTGLKPGTEYWVQIGGVKGGNWSAPLSAIFTT
21 | 4.1e+06 | 133 | – | – | – | – | CD71-binding FN3 domain SEQ ID NO: 268 (designed binder) MSLPAPKNLVVSRVTEDSARLSWTAPDAAFDSFEIGYFENLYLGEAIVLTVPGSERSYDPTGLKPGTEYWVQIGGVKGGNWSAPLSAIFTT
22 | 2.89e+06 | 442 | – | – | – | – | CD71-binding FN3 domain SEQ ID NO: 247 (designed binder) MSLPAPKNLVVSRVTEDSARLSWTAPDAAFDSFEIGYFENLYLGEAIVLTVPGSERSYDLTGLKPGTEYWVQIGGVKGGEWSAPLSAIFTT
23 | 3.68e+06 | 362 | – | – | – | – | CD71-binding FN3 domain SEQ ID NO: 246 (designed binder) MSLPAPKNLVVSRVTEDSARLSWTAPDAAFDSFEIAYQELSLWGEAIVLTVPGSERSYDLTGLKPGTEYYVHIGGVKGGIWSSPLSAYFTT
24 | 2.39e+06 | 193 | – | – | – | – | CD71-binding FN3 domain SEQ ID NO: 256 (designed binder) MSLPVPKNLVVSRVTEDSARLSWTAPDAAFDSFEIGYFENLYLGEAIVLTVPGSERSYDLTGLKPGTEYWVQIGGVKGGNWSAPLSAIFTT
25 | 4.35e+06 | 348 | – | – | – | – | CD71-binding FN3 domain SEQ ID NO: 269 (designed binder) MSLPAPKNLVVSRVTEDSARLSWTAPDAAFDSFEIGYFENDYFGEAIVLTVPGSERSYDLTGLKPGTEYVVFIGGVKGGNWSAPLSAIFTT
26 | 3.29e+06 | 289 | – | – | – | – | CD71-binding FN3 domain SEQ ID NO: 254 (designed binder) MSLPAPKNLVVSRVTEDSARLSWTAPDAAFDSFEIGYFENLYLGEAIVLWVPGSERSYDLTGLKPGTEYWVQIGGVKGGNWSAPLSAIFTT
27 | 1.61e+06 | 165 | – | – | – | – | CD71-binding FN3 domain SEQ ID NO: 242 (designed binder) MSLPAPKNLVVSRVTEDSARLSWTAPDAAFDSFEIGYFENLYLGEAIVLTVPGSERSYDLTGLKPGTKYWVQIGGVKGGNWSAPLSAIFTT
28 | 3.02e+06 | 350 | – | – | – | – | CD71-binding FN3 domain SEQ ID NO: 249 (designed binder) MSLPAPKNLVVSRVTEDSARLSWTAPDAAFDSFEIGYWENAYRGEAIVLTVPGSERSYDLTGLKPGTEYVVFIGGVKGGVWSVPLSAIFTT
29 | 3.29e+06 | 101 | – | – | – | – | CD71-binding FN3 domain SEQ ID NO: 236 (designed binder) MSLPAPKNLVVSRVTEDSARLSWTEPDAAFDSFEIGYFENLYLGEAIVLTVPGSERSYDLTGLKPGTEYWVQIGGVKGGNWSAPLSAIFTT
30 | – | – | 4.72e+06 | 5.93e+06 | 66 | 83 | CD71-binding FN3 domain of SEQ ID NO: 167 (designed binder) MSLPAPKNLVVSRVTEDSARLSWTAPDAAFDSFFIGYLEPQPPGEAIVLTVPGSERSYDLTGLKPGTEYNVTIQGVKGGFPSVPLSAAFTT
31 | – | – | 6.68e+06 | 6.09e+06 | 275 | 251 | CD71-binding FN3 domain of SEQ ID NO: 180 (designed binder) MSLPAPKNLVVSRVTEDSARLSWTAPDAAFDSFFIGYLEPQPPGEAISLYVPGSERSYDLTGLKPGTEYNVTIQGVKGGFPSEPLIANFTT
32 | – | – | 7.01e+06 | 5.99e+06 | 319 | 272 | CD71-binding FN3 domain of SEQ ID NO: 178 (designed binder) MGSLPAPKNLVVSRVTEDSARLSWTAPDAAFDSFFIGYLEPQPPGEAISLYVPGSERSYDLTGLKPGTEYNVTIQGVKGGFPSDPLVAHFTT
